Measurements published in paper PMC8967717 (Nature, 2022).
Values joined by “and” are separate entries in the source; they are usually repeats but may differ in a detail not shown here. Identical values can stand only once.

B1: XGv347 Fab fragment (Fab, V domains shown)
VH: QMQLVQSGPEVKKPGTSVKVSCKASGFTFTDVSSLQWVRQARGQRLEWIGWTVVGTGNTNYAPRFQERVTITTDKSTSTAYMELSSLRSEDTAVYYCAAPFCSETSCSDGFDLWGQGTKVTVS
VL: EIVLTQSPGTLSLSPGDRATLSCRASQSVRISYLAWYQQKPGQAPRLLISGSSSRATGIPDRFSASGSGTDFTLTISRLEPEDFAVYYCQQYANSPWTFGQGTKVEV
B2: XGv265 Fab fragment (Fab, V domains shown)
VH: QITLKESGPTLVKPTQTLTLTCNFSGFSLNTYGVGVGWIRQPPGKALEWLALIYWDGDERYGPFFKNKVTIAKDTSKNQVVLTMTNMDPVDTATYYCARHLIPTIFDYWGQGTLVTVSS
VL: QSALTQPASVSGSPGQSITISCTGTSSDVGGSNYVSWYQHHPDRAPKLLIYEVTNRPSGVSNRFSGSKSANTASLTISGLQAEDEADYYCSSYTTTSTHILFGGGTKLTV
B3: XGv265 (antibody, V domains shown)
VH: B2 VH
VL: B2 VL
B4: XGv282 monoclonal antibody (antibody, V domains shown)
VH: QVQLVQSGAEVKKPGSSVKVSCKASGDTFSSYTFSWVRQAPGQGLEWMGRSIPIVGKAIYAQEFQGRVTISADRSTTTVYMELSSLRSDDTAVYYCARDQSGFDFFYYDHWGQGTLVAVSS
VL: QSVLTQPPSASGTPGQRVTISCSGSGSNIGSNTINWYQQLPGTAPKVLIYRNNERPSGVPDRFSGSKSGTSASLTISGLQSEDEAYYHCAAWDDSLNGPVFGGGTKLTVL
notes: IgG1; copies: 2 + 2
B5: XGv282 Fab fragment (Fab, V domains shown)
VH: B4 VH
VL: B4 VL
B6: XGv282 (antibody, V domains shown)
VH: B4 VH
VL: B4 VL
B7: XGv347 monoclonal antibody (antibody, V domains shown)
VH: QMQLVQSGPEVKKPGTSVKVSCKASGFTFTDVSSLQWVRQARGQRLEWIGWTVVGTGNTNYAPRFQERVTITTDKSTSTAYMELSSLRSEDTAVYYCAAPFCSETSCSDGFDLWGQGTKVTVSS
VL: EIVLTQSPGTLSLSPGDRATLSCRASQSVRISYLAWYQQKPGQAPRLLISGSSSRATGIPDRFSASGSGTDFALTISRLEPEDFAVYYCQQYDNSPWTFGQGTKVEVK
notes: copies: 2 + 2
B8: XGv347 (antibody, V domains shown)
VH: B7 VH
VL: B7 VL
B9: XGv289 Fab fragment (Fab, V domains shown)
VH: QVQLVQSGAEVKKPGASLKVSCRASGYTFTSHFIHWVRQAPGQGLEWMGIINPSGGASYAQNFRDRVTMTTDPSTSTVYMELGSLRSEDTAVYYCARAEGSSWLGWFDPWGQGTLVTVSS
VL: QSVLTQPPSASGTPGQRVTIPCSGSSSNIGNNYVYWYQQLPGTAPKLLVYGNNQRPSGVPDRFSVSKSGTSASLAISGLRSEDEADYYCAAWDDGLSGSGWVFGGGTKLTVL
B10: XGv289 (antibody, V domains shown)
VH: B9 VH
VL: B9 VL

Legend:
[1] = target: prefusion-stabilized SARS-CoV-2 Omicron (B.1.1.529) S trimer (SARS-CoV-2, Omicron B.1.1.529 (BA.1), A67V | Δ69–70 | T95I | G142D | Δ143–145 | Δ211 | L212I | ins214EPE | G339D | …); test: cryo-EM structure; conditions: both partners purified
[2] = target: SARS-CoV-2 wild-type spike (S) protein (SARS-CoV-2, WT (MN908947), UniProt P0DTC2); test: cell-based or functional assay
[3] = target: T1, SARS-CoV-2 Omicron RBD (ACROBiosystems, cat. no. SPD-C522e) (SARS-CoV-2, Omicron B.1.1.529 (BA.1), G339D | S371L | S373P | S375F | K417N | N440K | G446S | S477N | T478K | E484A | …); test: BLI; conditions: both partners purified
T1 construct: source: bought: ACROBiosystems

| Binder | stoichiometry N [1] | authentic virus IC50(μg/ml), Wild-type [2] | pseudovirus IC50(μg/ml), Wild-type [2] | also measured |
| --- | --- | --- | --- | --- |
| B1 | 3 Fabs per S trimer and 2 Fabs per S trimer |  |  |  |
| B2 | 2 Fabs per S trimer |  |  |  |
| B3 |  | 0.0122 µg/mL | 0.0105 µg/mL |  |
| B4 |  |  |  | fold reduction in binding affinity against WT S [3]: 5 fold |
| B5 | 3 Fabs per S trimer |  |  |  |
| B6 |  | 0.00102 µg/mL | 0.007 µg/mL |  |
| B7 |  |  |  | fold decrease in binding against WT S [3]: 40 fold |
| B8 |  | 0.0061 µg/mL | 0.0685 µg/mL |  |
| B9 | 3 Fabs per S trimer |  |  |  |
| B10 |  | 0.0061 µg/mL | 0.00928 µg/mL |  |
